Measured values taken from US8026218 (UNIVERSITY OF ARIZONA, dated 2011).
Bridge positions count the residues as written; N and C are the ends. Square brackets hold non-standard residues; d marks the D form. Ends that are not written are not given here. * marks the point of attachment. NHBn(CF3)2 = C-terminal amide NH-Bn(CF3)2, a benzyl group carrying two CF3; NH(3,5-(CF3)2-benzyl) = FC(F)(F)c1cc(CN*)cc(C(F)(F)F)c1; NMeBn(3,5-(CF3)2) = CN(Cc1cc(C(F)(F)F)cc(C(F)(F)F)c1)*; OBzl(3,5-(CF3)2) = FC(F)(F)c1cc(CO*)cc(C(F)(F)F)c1

B1: Tyr[DPenGlyPhePen]ProLeuTrpNHBn(CF3)2 (TY046) (peptide)
peptide: YXGFXPLW
modifications: D-Pen (D-penicillamine) at 2 (X); Pen (L-penicillamine) at 5 (X); disulfide 2-5 (cyclic); C-terminal NH-Bn(CF3)2 amide

molecular target: T1, human δ opioid receptor (human, UniProt P41143 1-372); assay: radioligand competition vs [3H]DPDPE, membranes of hDOR cells
T1 construct: whole, on cells; Used as crude membrane preparations of the transfected cells; also called hDOR; DOR
T1 sequence (P41143 whole entry, stated change not applied): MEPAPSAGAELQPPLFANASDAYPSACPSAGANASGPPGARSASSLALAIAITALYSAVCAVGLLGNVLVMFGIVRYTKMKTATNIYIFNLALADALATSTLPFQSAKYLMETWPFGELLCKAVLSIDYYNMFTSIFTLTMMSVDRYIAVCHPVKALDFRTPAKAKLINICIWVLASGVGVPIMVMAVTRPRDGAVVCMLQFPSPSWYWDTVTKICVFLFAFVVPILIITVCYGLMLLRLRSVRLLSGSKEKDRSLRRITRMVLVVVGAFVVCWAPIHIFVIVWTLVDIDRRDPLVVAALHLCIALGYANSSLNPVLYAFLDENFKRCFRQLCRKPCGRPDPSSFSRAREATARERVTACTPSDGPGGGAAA

Row | Binder | Ki [nM]
1 | YAGFMPLW (D-Ala at 2; Met(O) (oxidized methionine) at 5; C-terminal O-3,5-Bn(CF3)2 ester) [TyrDAlaGlyPheMet(O)ProLeuTrpOBn(CF3)2 (TY023)] | 5.08
2 | B1 | 1.7
3 | Y[dA]GFMPLW-{OBzl(3,5-(CF3)2)} [TyrDAlaGlyPheMetProLeuTrpOBn(CF3)2 (TY005)] | 2.8
4 | Y[dC]GFMPLW-{OBzl(3,5-(CF3)2)} [TyrDCysGlyPheMetProLeuTrpOBn(CF3)2 (TY031)] | 55.4
5 | Y[dA]GFFPLW-{NHBn(CF3)2} [TyrDAlaGlyPhePheProLeuTrpNHBn(CF3)2 (TY015)] | 12.5
6 | Y[dA]GFFPLW-{NMeBn(3,5-(CF3)2)} [TyrDAlaGlyPhePheProLeuTrpNMeBn(CF3)2 (TY017)] | 26.5
7 | Y[dC]GFCPLW-{NH(3,5-(CF3)2-benzyl)} (disulfide 2-5, also called [D-Cys2, Cys5]) [Tyr[DCysGlyPheCys]ProLeuTrpNHBn(CF3)2 (TY039)] | 10.7
8 | Y[dA]GFMPLW-OH [TyrDAlaGlyPheMetProLeuTrpOH (TY043)] | 1.1
9 | YAGFXPLW (Dmt at 1; D-Ala at 2; Nle at 5 (X); C-terminal NMe-3,5-Bn(CF3)2 amide) [DmtDAlaGlyPheNleProLeuTrpNMeBn(CF3)2 (TY052)] | 0.46

molecular target: T2, rat µ opioid receptor (rat, UniProt P33535 1-398); assay: radioligand competition vs [3H]DAMGO, membranes of rMOR cells
T2 construct: whole, on cells; Used as crude membrane preparations of the transfected cells; also called rMOR; MOR
T2 sequence (P33535 whole entry): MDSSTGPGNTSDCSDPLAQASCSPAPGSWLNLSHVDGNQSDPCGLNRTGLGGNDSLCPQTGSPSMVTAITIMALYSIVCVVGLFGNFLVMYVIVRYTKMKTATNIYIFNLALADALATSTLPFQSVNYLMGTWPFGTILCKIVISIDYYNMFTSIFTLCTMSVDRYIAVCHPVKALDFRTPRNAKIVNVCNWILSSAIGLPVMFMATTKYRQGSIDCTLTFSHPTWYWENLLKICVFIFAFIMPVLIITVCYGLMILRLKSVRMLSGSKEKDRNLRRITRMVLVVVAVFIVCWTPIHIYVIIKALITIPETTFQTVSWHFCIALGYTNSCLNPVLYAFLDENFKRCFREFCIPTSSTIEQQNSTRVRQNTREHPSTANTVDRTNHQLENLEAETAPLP

Row | Binder | Ki [nM]
10 | B1 | 2330
11 | Y[dC]GFMPLW-{OBzl(3,5-(CF3)2)} [TyrDCysGlyPheMetProLeuTrpOBn(CF3)2 (TY031)] | 172
12 | Y[dA]GFFPLW-{NHBn(CF3)2} [TyrDAlaGlyPhePheProLeuTrpNHBn(CF3)2 (TY015)] | 53.7
13 | Y[dA]GFFPLW-{NMeBn(3,5-(CF3)2)} [TyrDAlaGlyPhePheProLeuTrpNMeBn(CF3)2 (TY017)] | 74.7

molecular target: guinea pig NK1 receptor (guinea pig, UniProt P30547 1-407); assay: cell-based or functional assay
Sequence (P30547 whole entry): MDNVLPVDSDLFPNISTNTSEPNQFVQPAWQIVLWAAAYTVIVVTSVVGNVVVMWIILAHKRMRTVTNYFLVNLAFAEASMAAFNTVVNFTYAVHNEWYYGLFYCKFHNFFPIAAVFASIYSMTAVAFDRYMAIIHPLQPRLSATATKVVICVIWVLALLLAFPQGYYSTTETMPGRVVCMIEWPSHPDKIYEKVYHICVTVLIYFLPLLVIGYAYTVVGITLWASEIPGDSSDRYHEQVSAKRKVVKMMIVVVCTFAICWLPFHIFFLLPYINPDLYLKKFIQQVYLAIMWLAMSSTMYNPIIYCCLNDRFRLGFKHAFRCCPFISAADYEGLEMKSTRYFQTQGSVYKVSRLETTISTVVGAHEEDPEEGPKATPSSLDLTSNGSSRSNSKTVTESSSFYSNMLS

Row | Binder | GPI/LMMP SP antagonist Ke [nM]
14 | YAGFMPLW (D-Ala at 2; Met(O) (oxidized methionine) at 5; C-terminal O-3,5-Bn(CF3)2 ester) [TyrDAlaGlyPheMet(O)ProLeuTrpOBn(CF3)2 (TY023)] | 7.8
15 | Y[dA]GFMPLW-{OBzl(3,5-(CF3)2)} [TyrDAlaGlyPheMetProLeuTrpOBn(CF3)2 (TY005)] | 24.7
16 | Y[dC]GFCPLW-{NH(3,5-(CF3)2-benzyl)} (disulfide 2-5, also called [D-Cys2, Cys5]) [Tyr[DCysGlyPheCys]ProLeuTrpNHBn(CF3)2 (TY039)] | 434

molecular target: µ opioid receptor of the guinea pig isolated ileum (guinea pig, UniProt P97266 1-98); assay: cell-based or functional assay
Sequence (P97266 whole entry): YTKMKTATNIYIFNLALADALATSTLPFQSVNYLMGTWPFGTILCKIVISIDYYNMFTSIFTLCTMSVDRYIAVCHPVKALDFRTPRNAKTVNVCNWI

Row | Binder | GPI/LMMP opioid(mu) agonist IC50
17 | YAGFMPLW (D-Ala at 2; Met(O) (oxidized methionine) at 5; C-terminal O-3,5-Bn(CF3)2 ester) [TyrDAlaGlyPheMet(O)ProLeuTrpOBn(CF3)2 (TY023)] | 154 nM
18 | Y[dA]GFMPLW-{OBzl(3,5-(CF3)2)} [TyrDAlaGlyPheMetProLeuTrpOBn(CF3)2 (TY005)] | 359 nM
19 | Y[dC]GFCPLW-{NH(3,5-(CF3)2-benzyl)} (disulfide 2-5, also called [D-Cys2, Cys5]) [Tyr[DCysGlyPheCys]ProLeuTrpNHBn(CF3)2 (TY039)] | 10.1 % at 1 uM
20 | Y[dA]GFMPLW-OH [TyrDAlaGlyPheMetProLeuTrpOH (TY043)] | 272 nM

molecular target: T1, human δ opioid receptor; assay: cell-based or functional assay

Row | Binder | GTP binding hDOR Emax [%] | GTP binding hDOR EC50 [nM]
21 | YAGFMPLW (D-Ala at 2; Met(O) (oxidized methionine) at 5; C-terminal O-3,5-Bn(CF3)2 ester) [TyrDAlaGlyPheMet(O)ProLeuTrpOBn(CF3)2 (TY023)] | 52.8 | 
22 | B1 | 15 | 17.2
23 | Y[dA]GFMPLW-{OBzl(3,5-(CF3)2)} [TyrDAlaGlyPheMetProLeuTrpOBn(CF3)2 (TY005)] | 47.6 | 2.9
24 | Y[dA]GFFPLW-{NHBn(CF3)2} [TyrDAlaGlyPhePheProLeuTrpNHBn(CF3)2 (TY015)] | 142 | 81.4
25 | Y[dA]GFFPLW-{NMeBn(3,5-(CF3)2)} [TyrDAlaGlyPhePheProLeuTrpNMeBn(CF3)2 (TY017)] | 125 | 122
26 | Y[dC]GFCPLW-{NH(3,5-(CF3)2-benzyl)} (disulfide 2-5, also called [D-Cys2, Cys5]) [Tyr[DCysGlyPheCys]ProLeuTrpNHBn(CF3)2 (TY039)] | 37 | 50.9
27 | Y[dA]GFMPLW-OH [TyrDAlaGlyPheMetProLeuTrpOH (TY043)] | 62 | 0.51

molecular target: T2, rat µ opioid receptor; assay: cell-based or functional assay

Row | Binder | GTP binding rMOR Emax [%] | GTP binding rMOR EC50 [nM]
28 | Y[dA]GFMPLW-{OBzl(3,5-(CF3)2)} [TyrDAlaGlyPheMetProLeuTrpOBn(CF3)2 (TY005)] | 45.6 | 
29 | Y[dA]GFFPLW-{NHBn(CF3)2} [TyrDAlaGlyPhePheProLeuTrpNHBn(CF3)2 (TY015)] | 64.4 | 176
30 | Y[dA]GFFPLW-{NMeBn(3,5-(CF3)2)} [TyrDAlaGlyPhePheProLeuTrpNMeBn(CF3)2 (TY017)] | 62.4 | 349
31 | Y[dC]GFCPLW-{NH(3,5-(CF3)2-benzyl)} (disulfide 2-5, also called [D-Cys2, Cys5]) [Tyr[DCysGlyPheCys]ProLeuTrpNHBn(CF3)2 (TY039)] | 20 | 118

molecular target: T3, human NK1 receptor (human, UniProt P25103 1-407); assay: radioligand competition vs [3H]substance P, membranes of hNK1 CHO cells
T3 construct: whole, on cells; Used as membrane preparations of transfected CHO cells; also called hNK1; human neurokinin-1 receptor
T3 sequence (P25103 whole entry): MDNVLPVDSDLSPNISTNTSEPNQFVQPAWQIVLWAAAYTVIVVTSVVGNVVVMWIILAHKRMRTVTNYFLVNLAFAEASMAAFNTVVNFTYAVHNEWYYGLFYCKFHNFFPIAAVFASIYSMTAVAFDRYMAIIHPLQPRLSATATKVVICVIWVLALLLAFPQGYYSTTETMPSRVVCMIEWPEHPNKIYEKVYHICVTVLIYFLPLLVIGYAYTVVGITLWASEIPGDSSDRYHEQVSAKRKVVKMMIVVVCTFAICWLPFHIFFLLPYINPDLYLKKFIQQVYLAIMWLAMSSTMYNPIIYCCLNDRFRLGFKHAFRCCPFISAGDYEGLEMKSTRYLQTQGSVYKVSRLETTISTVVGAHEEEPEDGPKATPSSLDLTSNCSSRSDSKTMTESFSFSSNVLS

Row | Binder | Ki [nM]
32 | YAGFMPLW (D-Ala at 2; Met(O) (oxidized methionine) at 5; C-terminal O-3,5-Bn(CF3)2 ester) [TyrDAlaGlyPheMet(O)ProLeuTrpOBn(CF3)2 (TY023)] | 0.00015
33 | B1 | 0.0053
34 | Y[dC]GFMPLW-{OBzl(3,5-(CF3)2)} [TyrDCysGlyPheMetProLeuTrpOBn(CF3)2 (TY031)] | 0.847
35 | Y[dA]GFFPLW-{NHBn(CF3)2} [TyrDAlaGlyPhePheProLeuTrpNHBn(CF3)2 (TY015)] | 0.192
36 | Y[dA]GFFPLW-{NMeBn(3,5-(CF3)2)} [TyrDAlaGlyPhePheProLeuTrpNMeBn(CF3)2 (TY017)] | 0.213
37 | YAGFXPLW (Dmt at 1; D-Ala at 2; Nle at 5 (X); C-terminal NMe-3,5-Bn(CF3)2 amide) [DmtDAlaGlyPheNleProLeuTrpNMeBn(CF3)2 (TY052)] | 0.21

molecular target: T4, rat NK1 receptor (rat, UniProt P14600 1-407); assay: radioligand competition vs [3H]substance P, membranes of rNK1 CHO cells
T4 construct: whole, on cells; Used as membrane preparations of transfected CHO cells; also called rNK1; rat neurokinin-1 receptor
T4 sequence (P14600 whole entry): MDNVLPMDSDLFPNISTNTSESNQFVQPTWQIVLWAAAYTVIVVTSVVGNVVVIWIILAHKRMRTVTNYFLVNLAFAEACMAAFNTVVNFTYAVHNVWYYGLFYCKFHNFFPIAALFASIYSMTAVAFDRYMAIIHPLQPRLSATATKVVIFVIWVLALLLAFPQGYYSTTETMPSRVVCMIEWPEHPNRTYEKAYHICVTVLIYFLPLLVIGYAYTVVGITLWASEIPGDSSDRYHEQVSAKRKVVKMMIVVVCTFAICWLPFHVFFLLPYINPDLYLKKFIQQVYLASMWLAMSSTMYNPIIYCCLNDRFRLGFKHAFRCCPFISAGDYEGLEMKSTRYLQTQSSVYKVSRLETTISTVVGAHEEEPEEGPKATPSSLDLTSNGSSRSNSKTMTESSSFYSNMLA

Row | Binder | Ki [nM]
38 | YAGFMPLW (D-Ala at 2; Met(O) (oxidized methionine) at 5; C-terminal O-3,5-Bn(CF3)2 ester) [TyrDAlaGlyPheMet(O)ProLeuTrpOBn(CF3)2 (TY023)] | 0.2
39 | Y[dA]GFMPLW-{OBzl(3,5-(CF3)2)} [TyrDAlaGlyPheMetProLeuTrpOBn(CF3)2 (TY005)] | 0.29
40 | Y[dC]GFMPLW-{OBzl(3,5-(CF3)2)} [TyrDCysGlyPheMetProLeuTrpOBn(CF3)2 (TY031)] | 7.06
41 | Y[dA]GFFPLW-{NHBn(CF3)2} [TyrDAlaGlyPhePheProLeuTrpNHBn(CF3)2 (TY015)] | 0.98
42 | Y[dA]GFFPLW-{NMeBn(3,5-(CF3)2)} [TyrDAlaGlyPhePheProLeuTrpNMeBn(CF3)2 (TY017)] | 0.57
43 | Y[dC]GFCPLW-{NH(3,5-(CF3)2-benzyl)} (disulfide 2-5, also called [D-Cys2, Cys5]) [Tyr[DCysGlyPheCys]ProLeuTrpNHBn(CF3)2 (TY039)] | 556
44 | Y[dA]GFMPLW-OH [TyrDAlaGlyPheMetProLeuTrpOH (TY043)] | 9850
